In PMC5124861, “Transition steps in peroxide reduction and a molecular switch for peroxide robustness of prokaryotic peroxiredoxins” (Scientific Reports, 2016):

Biological target: the molecule itself
Assay: crystal structure; oxidized EcAhpC_(1-186)-YFSKHN; hanging-drop vapour diffusion, 1.6 M ammonium sulfate, 100 mM MES pH 6.5, 5% dioxane, 4.5 mg/ml protein, 291 K; 2.7 Å; decamer in the asymmetric unit

B1: chimeric EcAhpC_(1-186)-YFSKHN (enzyme, E. coli | human)
chain: MSLINTKIKPFKNQAFKNGEFIEITEKDTEGRWSVFFFYPADFTFVCPTELGDVADHYEELQKLGVDVYAVSTDTHFTHKAWHSSSETIAKIKYAMIGDPTGALTRNFDNMREDEGLADRATFVVDPQGIIQAIEVTAEGIGRDASDLLRKIKAAQYVASHPGEVCPAKWKEGEATLAPSLDLVGKYFSKHN
notes: C-terminal YFSKHN segment (helix with the YF motif) of human Prx2; Decamer (alpha2)5 in the crystal; In the oxidized form an intermolecular disulphide joins C47 and C166' of the two subunits of each dimer; the reduced form came from soaking oxidized crystals in 1 mM TCEP; The forward primer (NcoI, ATG GCA ATG TCC) may add residues before M1; also called chimeric Prx; Ox; copies: 10
stoichiometry N: 10
